Test system: K4 kissing-loop RNA reporter
Experiment: apparent KD of K4 kissing-loop reporter; higher = weaker reporter binding
Details: Eterna round: R107
Procedure: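 RNA-MaP round R107: designed RNA switches with theophylline, tryptophan, arginine or FMN aptamers are transcribed on-chip within common flanks. They are titrated with a labelled K4 kissing-loop RNA reporter in RNA-MaP buffer (100 mM Tris pH 7.5, 80 mM KCl, 4 mM MgCl2), without ligand or with the indicated ligand. Median apparent KD per design.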

[1] = input ligand: theophylline 20 uM
[2] = input ligand: tryptophan 2.4 mM
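Further: bound reporter read as fluorescence of individual clusters on recovered sequencing chips by microscopy, with normalized cluster intensities fitted with a binding model.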

Sequence | apparent KD of K4 kissing-loop reporter (input ligand: FMN 200 uM) | apparent KD of K4 kissing-loop reporter (input ligand: arginine 13.2 mM) | apparent KD of K4 kissing-loop reporter (input ligand: none) | apparent KD of K4 kissing-loop reporter [1] | apparent KD of K4 kissing-loop reporter [2]
AAAUAAAGCAGUCACCCAGUGAUGUUGGAAGGAGCGUGCGAAAGCACAGGUAGGUCGCCGAUAAAGGACAAAGUCCGUGGCUGCA [#SwitchBubble 29 #K4Early] | 275 nM | 350 nM | 253 nM | 279 nM | 190 nM
AAAUUUAAUAUAUUUAAUUAAUUAUGUGAUACCAGACAUUUAUAAGUCCCUUGGCAGCACUUUGCAGUGAUGUUGCUUAUAAUAA [JR_SSTheophyA_Sub014] | 88.8 nM | 97.1 nM | 91.4 nM | 192 nM | 83.8 nM
AAAUUUAUAUUAGAUACCAGCAAAUUGAAAGUUUAUUAUGACAAGAGUGAUGUUCUUGUAUGCCCUUGGCAGCUGGUAUGGGUUU [KL-XTheo-B26] | 112 nM | 106 nM | 120 nM | 111 nM | 108 nM
AAAUUUUAAAGUGAUACCAGACAUCUCUAUUACAUUAAUAUAGCUAAGUGAUGUUUAGCAGUCCCUUGGCAGCACAAUUUAAUUA [JR_SSTheophyB_Sub012] | 336 nM | 316 nM | 334 nM | 474 nM | 266 nM
AAAUUUUCGAGUGAUGUUCGAAUAAUUUCAGAGGAUAUGCUUAAAAGCAGAAGGCUGUAUUACUAUUUGUUAUUAAAUUUUAUAA [JR_ExcFMNA_Sub001] | 106 nM | 110 nM | 96.7 nM | 105 nM | 86.2 nM
AACAGCAAUGCGGCCGCCACUUCGAGUUCAGUGAUGUUGAAAGAAUUAAAUAAAGAUCCCAAGAGGAGGACCGGGCAGUGCUGUU [Default title] | 596 nM | 448 nM | 530 nM | 621 nM | 418 nM
AACGGCCAGUCGGCCGCCACUCAAAGCAGUGAUGUUGCUAACUUUCUAAAAGAGUGAUGUUCUUAGAGGACCGGGACUAAUGUAA [Exclusion Tryptophan B GF 2] | 115 nM | 147 nM | 125 nM | 143 nM | 102 nM
AACGGCCAGUCGGCCGCCACUCGAUGCAGUGAUGUUGCUAACUUUCUAAAAGAGUGAUGUUCAUGGAGGACCGGGACUAGUGUAA [#30 K4 Tryptophan B Exclusion] | 317 nM | 244 nM | 291 nM | 255 nM | 241 nM
AACGUUUUGAGAAGGAGCGCGAUAAGCAGUGAUGUUGCUAUAAUUCUAUUUCUAUUUAAUUCGCAGGUAGGUCGCUCAAUACGUA [JR_SSArginiB_Sub019] | 136 nM | 134 nM | 134 nM | 138 nM | 119 nM
AACUGUCAAGGACAACAUUACUGAGGUGAUACCAGCAUCGAAAGAUGCCCUUGGCAGCACCAACUUGCAGUGAUGUUGCAAGUAA [Design6] | 212 nM | 184 nM | 212 nM | 279 nM | 214 nM
AAGAGGUAGGCGGCCGCCACUAGUUGUGAACACAUACGAGCCAGUGAUGUUGGUAUGGUGGGCGGUAGGACCGGGCCUACCUGAA [Exclusion - Tryptophan B (Freestyle 18)] | 427 nM | 481 nM | 496 nM | 454 nM | 475 nM
AAGCAGUCACUCGAAGCCAUCGAAGAUGGCCGAGGACCGGUACGGCCGCCACUCGGAGUGAUGUUCCGAAGACUGCAAAAUAAAA | 313 nM | 303 nM | 355 nM | 363 nM | 306 nM
AAGGAAUGUAUAGAUUAUAUACAUUCAACAGAGGAUAUGCAUUAUUGCAGAAGGCUGAAUGCAGUGAUGUUGCAAUAAUUAUUUA [#09 K4 FMN A Same State] | 60.5 nM | 199 nM | 181 nM | 291 nM | 129 nM
AAGGUAUCACCACAACAUCACUAAGGUGAUACCAGCAUCGAAAGAUGCCCUUGGCAGCACCAACUUGCAGUGAUGUUGCAAGUAA [(T)'-(H)'-(T1)-(T2)-(H1)-(H2)_Design9] | 417 nM | 310 nM | 365 nM | 438 nM | 366 nM
AAGUCUCGUUAAUUCGAGGUUACGAUCGAUACCAGUAGCGAGAGGUACCCUUGGCAGCGAAGUGAGUGAUGUUCAUGAAAGAAGA [KL-XTheoA12] | 78.5 nM | 119 nM | 92.7 nM | 131 nM | 78 nM
AAGUGAUGUUGUAGUGAUGUUGUGAUGUUGCAGGAUAUAUAGUGAUGUAGAAGGGUAUGUACAGUUUUUUUUUUUGAGUGUUGAU [sscsmullin] | 79.7 nM | 36 nM | 62.2 nM | 47.8 nM | 66.2 nM
AAGUGAUGUUGUAGUGAUGUUGUGAUGUUGCAGGAUAUAUAGUGAUGUAGAAGGGUAUGUGCAGUUUUCUUUUUUGAGUGUUGAU [aavamullin] | 72.1 nM | 30.8 nM | 57.1 nM | 43.7 nM | 56.9 nM
AAUAAAAUCACGGCCGCCACUGAAUAAUUGGUAAGUAGUGAUGUUACUUUACUUUUCUUAUUUAACAGGACCGGGUGAAUAUUUA [JR_ExcTryptoB_Sub009] | 104 nM | 83.4 nM | 98.5 nM | 88.2 nM | 123 nM
AAUAAACAGUCGGCCGCCACUUCAAUAGACUUAUUAUUGAAUGGUGUAGUUCUUCAGUGAUGUUGAAGGACCGGGACUUUCGCGC [Isesator] | 157 nM | 134 nM | 145 nM | 139 nM | 158 nM
AAUAAGGAGUGAUGUUCCAAGUGAUGUUAACGAGGACCGGUACGGCCGCCACUCGAUACGGCCGGAAAAUAAAAUAAAAUAAAAU [Same State - Tryptophan A (Freestyle 1)] | 103 nM | 119 nM | 134 nM | 120 nM | 124 nM
AAUAAGGUCGCCGAUACCAGCGCAGGCAGAGCAAAGCUCUGCCAAGUAGUGAUGUUACUGCGCCCUUGGCAGCGGUGGCACGACC [Omei KL Theo B SS C v3] | 196 nM | 157 nM | 163 nM | 123 nM | 167 nM
AAUAUAUAGUGAAGGAGCGCGAUAAGCAGUGAUGUUGCUUUGUUAUGAUUGUCUAUUUUUACGCAGGUAGGUCGCACUAUAUAUA [JR_ExcArginiB_Sub020] | 165 nM | 104 nM | 126 nM | 109 nM | 122 nM

Sequence | apparent KD of K4 kissing-loop reporter (input ligand: FMN 200 uM) | apparent KD of K4 kissing-loop reporter (input ligand: arginine 13.2 mM) | apparent KD of K4 kissing-loop reporter (input ligand: none) | apparent KD of K4 kissing-loop reporter [1] | apparent KD of K4 kissing-loop reporter [2]
AAUGUACAAGUGAUGUUUGUACUUUCCGAAGGAGCGUCUAAUAAGACAGGUAGGUCGCGGAUUAUCAUAAUUAUCAGGUUUUCAA [JR_SSArginiA_Sub015] | 98.8 nM | 88.8 nM | 92.4 nM | 89.1 nM | 90.9 nM
AAUUAAUGUAUAGAUUAUAUACAUUAAUCAGAGGAUAUGCUUUGUUGCAGAAGGCUGAAUGCAGUGAUGUUGCAAUUUUAAUUUA [JR_SSFMNA_Sub005] | 50.8 nM | 99.8 nM | 54.7 nM | 87.3 nM | 46.7 nM
AAUUGAGUGACGGCCGCCACUAGAGUGAUUUUUUUGUUUGAGUGAUGUUUUGAUGUUUGAUUUUGUAGGACCGGGUUGAGUGAUG [qqxzmullin] | 305 nM | 306 nM | 357 nM | 528 nM | 247 nM
AAUUUCGGAUACAUCAUAGUUUUAAUUCGGCGAGGACCGGUACGGCCGCCACUCGGUAUAGACGCGUCCAGUGAUGUUGGCGCUU [theeternabot_sameState_KL_Trp_A_45] | 262 nM | 193 nM | 237 nM | 260 nM | 223 nM
ACACUAUCGUCAUAGACGGUAGUGAACACACAGGAUAUGAGUGAUGUUAGAAGGGUGUAAGACUGUAUCGAAUAGAUACAGUCAA [FmnA 7 #K4BetweenAptamer #OpenEnded] | 400 nM | 142 nM | 204 nM | 192 nM | 190 nM
ACACUCGGCUCGGCCGCCACUCCAGUGAUGUUGGAGUCAUAGCUAUGACGAGAAGAGCGUUUUCGGAGGACCGGGAGCUCACAGG [Leveeder] | 338 nM | 261 nM | 359 nM | 351 nM | 222 nM
ACACUUUACGUAGGAUAUGCGACGAGUGAUGUUCGUCAGGCGGCUCUAGAUUAAACAAGCCGCCUAGCAGAAGGACGGGCAGUGU [Teaanso] | 154 nM | 145 nM | 164 nM | 160 nM | 163 nM
ACAGUUGCUAGUGAUACCAGACUAGCACUACGUAAUAUGUCAAGUGAUGUUUGACAACUAGUCCCUUGGCAGCGCGAUACGACUG [#11 K4 Theophylline B Same State] | 235 nM | 289 nM | 259 nM | 269 nM | 225 nM
ACAUCGGUUGAGAGUGAUGUUCCUUGUGUUCGAGGACCGGUACGGCCGCCACUCGGGUAGAAAAUAAAAGAUGUGUUUGAUUUUU [BDazzled - #15 SS Tryptophan A] | 260 nM | 42.1 nM | 143 nM | 275 nM | 223 nM
ACCAUCAAAGAUGGCCAGGACUCCGCUGAUACCAGAGUGAAAACACUCCCUUGGCAGCAGGUGAGUGAUGUUCACGAGUCCUGGA [Omel KL Theo A SS B v6] | 986 nM | 330 nM | 476 nM | 448 nM | 836 nM
ACCCGGGCCCGAAAGGGCCCGGGAAGAGAUACCAGCAGCGAAAGCUGCCCUUGGCAGCUCACUUAGUGAUGUUGAGAAUAGGGCG [#21 K4 Theophylline A Same State] | 657 nM | 221 nM | 554 nM | 299 nM | 225 nM
ACCUGUAGUGAUGUUACUGGUGGUUAGGAAGGAGCGCCCGCGUGGGCAGGUAGGUCGCCUAAGCUAUGUGGGAAACCGCAUAUUG [#14 K4 Arginine A Same State] | 75.5 nM | 73.8 nM | 76.9 nM | 75.3 nM | 93.3 nM
ACGACGCAUAGUGAUACCAGCUAUAUAUGAGUGAUGUUCUACCUAAAAUGGUAAUAAUUUAGCCCUUGGCAGCACUAUGCGUCAG [KL-SSTheoB4] | 380 nM | 456 nM | 377 nM | 562 nM | 262 nM
ACGGGCGGCUGAAGGAGCGGGCGGGCCCGAGUGAUGUUCGGGUGGGCCGUGAGGCCCGGAGCCCAGGUAGGUCGCGGUUCCGUCC [#2 Same State - Arginine B Attempt #21 (HarryS)] | 135 nM | 104 nM | 182 nM | 171 nM | 164 nM
ACGUAGUACGUAGGAUAUCAGAGAUCAGUUAGUGAGAUCGAGUGAUGUUCGAUCAAGUGUUCAUUUUGAGAAGGAUGUAGUAGGA [KL-SSFMN-B7] | 263 nM | 320 nM | 387 nM | 428 nM | 238 nM
ACGUAGUACGUAGGAUAUCAGAGAUCAGUUAGUGAGAUCGAGUGAUGUUCGAUCAUGUGUUCAGUUUGAGAAGGAUGUAGUAGGA [KL-SSFMN-B5] | 214 nM | 280 nM | 355 nM | 408 nM | 198 nM
ACGUAGUUCUAGGAUACCAGCCAAGAAGCCAGGACAAAAGUCCUGGCUGCCAGUGAUGUUGGCCCUUGGCAGCCUAGAACUACGA [Omei KL Theo B Exc B v10] | 128 nM | 113 nM | 121 nM | 109 nM | 121 nM
ACGUAGUUCUAGGAUACCAGCCAAGGCCCAGGACAAAAGUCCUGGGUCGCCAGUGAUGUUGGCCCUUGGCAGCCUAGAACUACGA [Omei KL Theo B Exc B v11] | 421 nM | 358 nM | 457 nM | 387 nM | 444 nM
ACGUUCGGAACGGCCGCCACUAUGGGCAGUGAUGUUGCCCAUAACCGGUUUUGCGUCAGAUCCCUUAGGACCGGGUUCUGGUAUA [Soonlesoso] | 78.4 nM | 68.6 nM | 73.4 nM | 65.8 nM | 75.2 nM
ACUAAGGUUUUUGGAGCAGUGAUGUUGCUCCGAGGACCGGUACGGCCGCCACUCGGUGCAUGUAUGCGCUUCACUCCGGAAGUUG [Bieron] | 152 nM | 140 nM | 165 nM | 148 nM | 139 nM
ACUCCGAGUGAUGUUAAGAGAUUCUCUGUUAAGGAUAUUUUGCGCAAAAGAAGGUAACCCGGUUUUCGUAAUCUGUUAAUGCGGA [theeternabot_exclusion_KL_FMN_A_38] | 572 nM | 408 nM | 581 nM | 532 nM | 503 nM

From the supplement of paper PMC9170038
